In paper PMC9054930 (RSC Advances, 2020):

B1: anti-AFP nanobody A2, phage-displayed (VHH)
VHH: QVQLVESGGGLVQAGGSLGLSCAASGLGFSIVAGGWFRQAPGKERELVAAIGTGTGDINYGDSVKGRFTISSDSAKNTVYLQMNSLKPEDTAVYFCATTERYYTGSYDSRARPQSYGYWGQGTQVTVSS
B2: anti-AFP nanobody A1, phage-displayed (VHH)
VHH: QVQLVESGGGLVQSGGSLRLSCAASMRGFRIVAGGWYRQSPGKQRELVADINYQDDTNYGDFVKGRFTISRDSAKNTLYLQMNSLKPEDTAVYYCSALSVIGNEFWGQGTQVTVSS

Molecular target: alpha fetal protein (AFP) (Homo sapiens, UniProt P02771)
Assay: ELISA

alpha fetal protein (AFP), sequence (P02771 19-609): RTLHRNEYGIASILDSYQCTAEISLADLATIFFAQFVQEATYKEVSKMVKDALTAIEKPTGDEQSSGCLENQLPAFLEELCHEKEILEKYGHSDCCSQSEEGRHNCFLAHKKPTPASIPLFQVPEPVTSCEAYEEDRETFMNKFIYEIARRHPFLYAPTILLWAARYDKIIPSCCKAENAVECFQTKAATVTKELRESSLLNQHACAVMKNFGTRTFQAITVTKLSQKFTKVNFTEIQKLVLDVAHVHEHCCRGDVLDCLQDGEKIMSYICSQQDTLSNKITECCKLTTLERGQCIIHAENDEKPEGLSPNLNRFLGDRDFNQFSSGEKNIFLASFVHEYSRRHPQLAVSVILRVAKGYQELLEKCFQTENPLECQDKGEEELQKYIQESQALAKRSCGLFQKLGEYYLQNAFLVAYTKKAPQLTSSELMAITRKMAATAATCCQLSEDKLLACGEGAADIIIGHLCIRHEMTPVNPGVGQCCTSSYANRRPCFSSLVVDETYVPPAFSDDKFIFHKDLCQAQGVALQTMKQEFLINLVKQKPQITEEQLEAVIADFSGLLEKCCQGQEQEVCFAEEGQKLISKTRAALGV

Row | Binder | binding result
1 | B1 | binds
2 | B2 | binds
